Test results published in patent US20220259318A1 (Hoffmann-La Roche, published 2022).
Positions count from the first letter of the chain named. Several values for one entry are separate records, joined by “and”; a condition that tells them apart may be missing. Equal entries are not always repeated.

B1: 10B10-TCB (bispecific antibody, human IgG1, kappa, L234A L235A)
light 1: DIQLTQSPHSLSASLGETVSIECLASEGISNYLAWFHQKPGKSPQLLIYYASSLQDGVPSRFSGSGSGTQYSLKISNMQPEDEGVYYCQQGYKYPLTFGSGTKLEIKRTVAAPSVFIFPPSDRKLKSGTASVVCLLNNFYPREAKVQWKVDNALQSGNSQESVTEQDSKDSTYSLSSTLTLSKADYEKHKVYACEVTHQGLSSPVTKSFNRGEC
light 2: EVQLLESGGGLVQPGGSLRLSCAASGFTFSTYAMNWVRQAPGKGLEWVSRIRSKYNNYATYYADSVKGRFTISRDDSKNTLYLQMNSLRAEDTAVYYCVRHGNFGNSYVSWFAYWGQGTLVTVSSASVAAPSVFIFPPSDEQLKSGTASVVCLLNNFYPREAKVQWKVDNALQSGNSQESVTEQDSKDSTYSLSSTLTLSKADYEKHKVYACEVTHQGLSSPVTKSFNRGEC
heavy 1: EVQLVESGGGLVQPGRSMKLSCAASGFTFTNFYMAWVRQAPTKALEWVASINTGGGYTYYRDSVKGRFTVSRDNTRSTLYLQMDSLRSEETATYYCARHLTYYGRYYYFDYWGQGVMVTVSSASTKGPSVFPLAPSSKSTSGGTAALGCLVEDYFPEPVTVSWNSGALTSGVHTFPAVLQSSGLYSLSSVVTVPSSSLGTQTYICNVNHKPSNTKVDEKVEPKSCDKTHTCPPCPAPEAAGGPSVFLFPPKPKDTLMISRTPEVTCVVVDVSHEDPEVKFNWYVDGVEVHNAKTKPREEQYNSTYRVVSVLTVLHQDWLNGKEYKCKVSNKALGAPIEKTISKAKGQPREPQVCTLPPSRDELTKNQVSLSCAVKGFYPSDIAVEWESNGQPENNYKTTPPVLDSDGSFFLVSKLTVDKSRWQQGNVFSCSVMHEALHNHYTQKSLSLSPGK
heavy 2: not shown
B2: P1AE5709 (antibody, V domains shown)
VH: EVQLLESGGGLVQPGGSLRLSCAASGFTFSKYAMAWVRQAPGKGLEWVASISTGGVNTYYRDSVKARFTISRDNSKNTLYLQMNSLRAEDTAVYYCATHTGDYFDYWGQGTMVTVSS
VL: EIVLTQSPGTLSLSPGERATLSCRASQSVSISGINLMNWYQQKPGQQPRLLIYHASILASGIPDRFSGSGSGTDFTLTISRLEPEDFAVYYCQQTRESPLTFGQGTRLEIK
notes: Humanized 5E11 IgG; PGLALA Fc implied by the CAR-J assay; also called 5E11_VH1a + 5E11_VL2a
B3: P1AE5707 (antibody, V domains shown)
VH: B2 VH
VL: DIVMTQSPDSLAVSLGERATINCRASQSVSISGINLMNWYQQKPGQQPKLLIYHASILASGVPDRFSGSGSGTDFTLTISSLQAEDVAVYYCQQTRESPLTFGQGTRLEIK
notes: Humanized 5E11 IgG; PGLALA Fc implied by the CAR-J assay; also called 5E11_VH1a + 5E11_VL1a
B4: P1AE5722 (antibody, V domains shown)
VH: B2 VH with R61A, A66G
VL: B2 VL
notes: Humanized 5E11 IgG; PGLALA Fc implied by the CAR-J assay; also called 5E11_VH1c + 5E11_VL2a
B5: P1AE5716 (antibody, V domains shown)
VH: B2 VH with V2L, S75A
VL: B2 VL
notes: Humanized 5E11 IgG; PGLALA Fc implied by the CAR-J assay; also called 5E11_VH1b + 5E11_VL2a
B6: P1AE5717 (antibody, V domains shown)
VH: B2 VH with V2L, S75A
VL: B2 VL with R49K
notes: Humanized 5E11 IgG; PGLALA Fc implied by the CAR-J assay; also called 5E11_VH1b + 5E11_VL2b
B7: P1AE5715 (antibody, V domains shown)
VH: B2 VH with V2L, S75A
VL: B3 VL with R24K, A25S
notes: Humanized 5E11 IgG; PGLALA Fc implied by the CAR-J assay; also called 5E11_VH1b + 5E11_VL1c
B8: P1AE5708 (antibody, V domains shown)
VH: B2 VH
VL: B3 VL with R24K, A25S
notes: Humanized 5E11 IgG; PGLALA Fc implied by the CAR-J assay; also called 5E11_VH1a + 5E11_VL1c
B9: P1AE5710 (antibody, V domains shown)
VH: B2 VH
VL: B2 VL with R49K
notes: Humanized 5E11 IgG; PGLALA Fc implied by the CAR-J assay; also called 5E11_VH1a + 5E11_VL2b
B10: P1AE5729 (antibody, V domains shown)
VH: B2 VH with V2L, R61A, A66G, S75A
VL: B2 VL with R49K
notes: Humanized 5E11 IgG; PGLALA Fc implied by the CAR-J assay; also called 5E11_VH1d + 5E11_VL2b
B11: P1AE5714 (antibody, V domains shown)
VH: B2 VH with V2L, S75A
VL: B3 VL
notes: Humanized 5E11 IgG; PGLALA Fc implied by the CAR-J assay; also called 5E11_VH1b + 5E11_VL1a
B12: P1AE5713 (antibody, V domains shown)
VH: B2 VH
VL: DIQMTQSPSSLSASVGDRVTITCRASQSVSISGINLMNWYQQKPGQQPKLLIYHASILASGVPSRFSGSGSGTDFTLTISSLQPEDFATYYCQQTRESPLTFGQGTRLEIK
notes: Humanized 5E11 IgG; PGLALA Fc implied by the CAR-J assay; also called 5E11_VH1a + 5E11_VL3b
B13: P1AE5737 (antibody, V domains shown)
VH: QVQLVESGGGVVQPGRSLRLSCAASGFSFSNYGMAWVRQAPGKGLEWVASISTGGGNTYYRDSVKGRFTISRDNSKNTLYLQMNSLRAEDTAVYYCTRHDRGGLYWGQGTMVTVSS
VL: DIVMTQSPDSLAVSLGERATINCKSSKSLLHSNGITYVYWYQQKPGQPPKLLIYRMSNLASGVPDRFSGSGSGTDFTLTISSLQAEDVAVYHCGQLLENPYTFGQGTKLEIK
notes: Humanized 5F11 IgG; PGLALA Fc implied by the CAR-J assay; also called 5F11_VH1a + 5F11_VL2b
B14: P1AE5743 (antibody, V domains shown)
VH: B13 VH with Q1E, S75A
VL: EIVLTQSPGTLSLSPGERATLSCRASKSLLHSNGITYVYWYQQKPGQAPRLLIYRMSNLASGIPDRFSGSGSGTDFTLTISRLEPEDFAVYHCGQLLENPYTFGQGTKLEIK
notes: Humanized 5F11 IgG; PGLALA Fc implied by the CAR-J assay; also called 5F11_VH1b + 5F11_VL2c
B15: P1AE5747 (antibody, V domains shown)
VH: B13 VH with R61A
VL: B13 VL
notes: Humanized 5F11 IgG; PGLALA Fc implied by the CAR-J assay; also called 5F11_VH1c + 5F11_VL2b
B16: P1AE5754 (antibody, V domains shown)
VH: B13 VH with Q1E, R61A, S75A
VL: B14 VL
notes: Humanized 5F11 IgG; PGLALA Fc implied by the CAR-J assay; also called 5F11_VH1d + 5F11_VL2c
B17: P1AE5759 (antibody, V domains shown)
VH: B13 VH with Q1E, V11L, R16G, S75A
VL: B14 VL
notes: Humanized 5F11 IgG; PGLALA Fc implied by the CAR-J assay; also called 5F11_VH2b + 5F11_VL2c
B18: P1AE5753 (antibody, V domains shown)
VH: B13 VH with Q1E, R61A, S75A
VL: B13 VL
notes: Humanized 5F11 IgG; PGLALA Fc implied by the CAR-J assay; also called 5F11_VH1d + 5F11_VL2b
B19: P1AE5758 (antibody, V domains shown)
VH: B13 VH with Q1E, V11L, R16G, S75A
VL: B13 VL
notes: Humanized 5F11 IgG; PGLALA Fc implied by the CAR-J assay; also called 5F11_VH2b + 5F11_VL2b
B20: P1AE5764 (antibody, V domains shown)
VH: B13 VH with Q1E, V11L, R16G, R61A, S75A
VL: B14 VL
notes: Humanized 5F11 IgG; PGLALA Fc implied by the CAR-J assay; also called 5F11_VH2d + 5F11_VL2c
B21: P1AE5738 (antibody, V domains shown)
VH: B13 VH
VL: B14 VL
notes: Humanized 5F11 IgG; PGLALA Fc implied by the CAR-J assay; also called 5F11_VH1a + 5F11_VL2c
B22: P1AE5749 (antibody, V domains shown)
VH: B13 VH with R61A
VL: B14 VL
notes: Humanized 5F11 IgG; PGLALA Fc implied by the CAR-J assay; also called 5F11_VH1c + 5F11_VL2c

biological target: T1, human GPRC5D (human, UniProt Q9NZD1 1-345); test: cell-based or functional assay
T1 sequence (Q9NZD1 whole entry): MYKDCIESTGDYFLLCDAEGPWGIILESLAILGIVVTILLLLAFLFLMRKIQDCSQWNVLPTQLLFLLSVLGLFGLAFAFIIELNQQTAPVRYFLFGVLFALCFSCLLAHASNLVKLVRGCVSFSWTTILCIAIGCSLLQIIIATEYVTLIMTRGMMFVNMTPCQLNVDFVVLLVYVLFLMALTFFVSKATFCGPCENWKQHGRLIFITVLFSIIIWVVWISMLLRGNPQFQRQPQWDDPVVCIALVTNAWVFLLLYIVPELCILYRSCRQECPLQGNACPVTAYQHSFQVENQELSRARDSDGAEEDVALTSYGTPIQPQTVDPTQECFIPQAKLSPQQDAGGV

Binder | EC50 in vitro killing assay, AMO-1 | EC50 in vitro killing assay, EJM | EC50 in vitro killing assay, L363 | EC50 in vitro killing assay, MOLP-2 | EC50 in vitro killing assay, NCI-H929 | EC50 in vitro killing assay, OPM-2 | EC50 in vitro killing assay, RPMI
B1 | 0.084 nM | 0.079 nM | 0.034 nM | 0.16 nM | 0.056 nM | 0.028 nM | 0.965 nM

biological target: T1, human GPRC5D; test: cell-based or functional assay; remark: another data set of the same source

CAR-J2 EC50 [ng/mL] (PGLALA-CAR-J activation, L363 target cells) | Binder
59.4 ng/mL | B2
42.4 ng/mL | B3
4.6 ng/mL | B4
3.3 ng/mL | B5
79.9 ng/mL | B6
3.6 ng/mL | B7
456 ng/mL | B8
3.5 ng/mL | B9
61.3 ng/mL | B10
5.5 ng/mL | B11
76.9 ng/mL | B12

biological target: T1, human GPRC5D; test: cell-based or functional assay; remark: another data set of the same source

CAR-J2 EC50 [ng/mL] (PGLALA-CAR-J activation, L363 target cells) | Binder
2.95 ng/mL | B13
583 ng/mL | B14
183 ng/mL | B15
8.89 ng/mL | B16
15.7 ng/mL | B17
30 ng/mL | B18
190 ng/mL | B19
78.2 ng/mL | B20
397 ng/mL | B21
82.6 ng/mL | B22

biological target: T1, human GPRC5D; test: cell ELISA, CHO hu GPRC5D (EC/IC50 rel)
Procedure: Stable transfected CHO clones expressing either human GPRCSD or cynomolgus GPRCSD or murine GPRCSD or human GPRCSA were used to analyze the binding of potential lead candidate antibodies as IgGs. In detail, 10⁴ cells (viability≥98%) were seeded into 384 well-microtiter plates (BD Poly D-Lysin, #356662, volume: 25 μl/well) using fresh culture medium. After overnight incubation at 37° C., 25 μl/well dilutions of antibodies were added (15×1:3 dilutions in 1×PBS, assay conc. starts at 30 μg/ml) to the cells for 2 hours at 4° C. After one washing step using 90 μl/well PBST (10×PBS, Roche, #11666789001+0.1% Tween 20), cells were subsequently fixed by the addition of 50 μl/well 0.05% glutaraldehyde (Sigma Cat. No: G5882 in 1×PBS) for 10 min at room temperature (RT). After three additional washing steps using 90 μl/well PBST, secondary antibodies were added for detection: for human antibodies goat anti-human Ig a chain antibody HRP conjugate (Millipore #AP502P) diluted 1:2000 in blocking buffer (1×PBS (Roche #11666789001)+2% BSA (Bovine Serum Albumin Fraction V, fatty acid free, Roche, #10735086001)+0.05% Tween 20) was used (25 μl/well). […] After incubation for 1 h at RT and three additional washing steps using 90 μl/well PBST, 25 μl/well TMB substrate was added (Roche order no. 11835033001) for 10 min and color development to final ODs was determined by measurement at 370 nm/492 nm.
For the characterization of the humanization variants of the VH and VL domains of the GPRC5D binders the ELISA protocol as described above was used (see Example 7). The data are summarized in the table 10 for the humanization variants of 5E11 and in table 11 for the humanization variants of 5F11.

EC50 | Binder
0.0191 µg/mL and 0.13 nM | B2
0.0142 µg/mL and 0.09 nM | B3
0.0197 µg/mL and 0.13 nM | B4
0.0151 µg/mL and 0.1 nM | B5
0.0139 µg/mL and 0.09 nM | B6
0.0211 µg/mL and 0.14 nM | B7
0.012 µg/mL and 0.08 nM | B8
0.0101 µg/mL and 0.07 nM | B9
0.0104 µg/mL and 0.07 nM | B10
0.0129 µg/mL and 0.09 nM | B11
0.0165 µg/mL and 0.11 nM | B12
0.0059 µg/mL and 0.04 nM | B13
0.0076 µg/mL and 0.05 nM | B14
0.009 µg/mL and 0.06 nM | B15
0.009 µg/mL and 0.06 nM | B16
0.0031 µg/mL and 0.02 nM | B17
0.0104 µg/mL and 0.07 nM | B18
0.0026 µg/mL and 0.02 nM | B19
0.0045 µg/mL and 0.03 nM | B20
0.0041 µg/mL and 0.03 nM | B21
0.0074 µg/mL and 0.05 nM | B22
